This assay has as its target T1, endogenous Vps11 (HOPS subunit) (rat, UniProt D3ZTB4 2-941).
T1 construct: whole, on cells; Endogenous protein detected in situ with an anti-Vps11 antibody; also called vacuolar protein sorting-associated protein 11 homolog
T1 sequence: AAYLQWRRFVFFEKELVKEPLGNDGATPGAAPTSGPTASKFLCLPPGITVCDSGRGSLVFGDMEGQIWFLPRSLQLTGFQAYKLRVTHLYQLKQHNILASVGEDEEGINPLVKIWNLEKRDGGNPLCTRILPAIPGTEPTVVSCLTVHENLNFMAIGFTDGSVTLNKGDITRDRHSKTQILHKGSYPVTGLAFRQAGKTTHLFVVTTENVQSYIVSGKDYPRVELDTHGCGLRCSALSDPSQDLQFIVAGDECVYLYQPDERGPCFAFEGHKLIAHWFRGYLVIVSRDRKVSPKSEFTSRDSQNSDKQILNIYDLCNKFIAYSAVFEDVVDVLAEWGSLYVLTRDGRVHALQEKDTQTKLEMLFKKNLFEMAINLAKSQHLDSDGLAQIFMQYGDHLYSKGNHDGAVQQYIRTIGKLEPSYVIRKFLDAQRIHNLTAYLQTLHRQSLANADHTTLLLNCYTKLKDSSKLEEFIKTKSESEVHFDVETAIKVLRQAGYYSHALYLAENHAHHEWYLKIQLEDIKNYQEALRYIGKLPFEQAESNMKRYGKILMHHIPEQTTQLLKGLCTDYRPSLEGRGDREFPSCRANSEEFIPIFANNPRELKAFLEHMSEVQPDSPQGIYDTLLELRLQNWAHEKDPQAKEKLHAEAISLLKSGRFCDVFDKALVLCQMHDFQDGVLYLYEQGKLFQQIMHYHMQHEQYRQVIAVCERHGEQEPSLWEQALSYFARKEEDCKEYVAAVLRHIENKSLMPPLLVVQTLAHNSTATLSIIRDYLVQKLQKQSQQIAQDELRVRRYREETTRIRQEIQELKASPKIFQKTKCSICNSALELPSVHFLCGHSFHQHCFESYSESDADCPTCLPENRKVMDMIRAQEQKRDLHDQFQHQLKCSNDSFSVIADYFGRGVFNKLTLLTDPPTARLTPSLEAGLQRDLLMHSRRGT
Kind of assay: proximity ligation assay (in situ co-IP) in transfected hepatic cells, baseline (OA) and 1 h post-EPA.

Experimental: The A18-C3 cells were cultured in DMEM (Invitrogen) supplemented with fetal bovine serum (20%), penicillin (50 U/mL), streptomycin (50 μg/mL, Invitrogen) and Geneticin/G418 (500 μg/mL, Gibco) at 37° C. in 5% CO₂. Transfection was conducted when cells were 60-70% confluence. Appropriate plasmids were mixed with FuGENE HP extreme reagent (Roche Diagnostic), according to manufacturer's protocol, and incubated for 30 min. […] In silencing experiments, appropriate siRNAs were transfected into cells using the X-treme GENE siRNA regent (Roche Diagnostic).
One h post-EPA treatment, the cells were fixed, permeabilized and incubated with an anti-RFP antibody together with proper anti-Vps11, -Vps39, and -Vps41 antibodies. The proximity ligation was achieved using the Duolink secondary PLA probes (Olink AB) that detects substrate formation between the two antibodies as described previously³⁸.

B1: mCherry-tagged Arl8b^T34N (other)
chain: MLALISRLLDWFRSLFWKEEMELTLVGLQYSGKNTFVNVIASGQFSEDMIPTVGFNMRKVTKGNVTIKIWDIGGQPRFRSMWERYCRGVNAIVYMIDAADREKIEASRNELHNLLDKPQLQGIPVLVLGNKRDLPNALDEKQLIEKMNLSAIQDREICCYSISCKEKDNIDITLQWLIQHSKSRRS
notes: Fusion protein expressed by plasmid transfection inside McA-RH7777 (A18-C3) hepatic cells and detected in situ with an anti-RFP antibody; also called ^mCherryArl8b^T34N; RFP-tagged Arl8b^T34N; not shown: C-terminal mCherry tag and its RDP linker
On to B1, for which the binding result is recorded as “no binding”.

For the origin of these results see patent US20190125827A1 (UNIVERSITY OF OTTAWA, published 2019).
